Positions count from the first letter of the chain named. In names and notes the source's numbering stands. Entries after “also recorded” stand apart in the source; their conditions may differ.
What was measured:
[1] = system: E. coli ATCC 25922; assay: Microbicidal activity: counting colonies on Petri dishes; type: cell-based; details: 1 h contact with 1.10^6 CFU/mL, 25 mM SCN^−, pH7.4; enzyme alone: wt RbMPO 300 nM or GOxaspniger 25 nM
Protocol: 10 mL of TSB medium (pH7.4) was inoculated with a freshly obtained colony of E. coli ATCC 25922, and the culture was incubated at 37° C. and 190 rpm overnight. In the morning, 25 mL of TSB medium were inoculated with the previous day's pre-culture to obtain an OD620 nm of 0.07 at TO. When the bacterial culture reached the exponential phase, the bacterial solution was diluted 10-fold in TSB in order to reach 1.10^6 CFU/mL. This dilution was then contacted with the enzyme solution for 1 hour (in a final volume of 1 mL). Further dilutions were then made (10^−1, 10^−4, 10−5, 10^−6). 100 μL of these solutions were spread on a Petri dish containing TSB agar medium and placed at 37° C. overnight. The next day, the surviving colonies were counted and the number of CFU/mL was calculated using the formula below: […]

[2] = Heme reconstitution of apo wt and mutated RbMPOs (tryptophan fluorescence quenching); type: binding; details: 1 μM enzyme; for k2: heme reconstitution of apo enzyme, 50 mM sodium phosphate pH7.5, 25° C.
Protocol: Sample dilutions were performed in a 50 mM pH7.5 sodium phosphate buffer.

[3] = Steady-state kinetics by stopped-flow, NaSCN (hypothiocyanate formation, 240 nm); type: biochemical; details: for activity in presence of SCN^− (NaSCN range), in words / k2: 300 nM enzyme, 79 μM H2O2; for substrate specificity: from steady-state NaSCN, NaBr and NaCl ranges; for k2: NaSCN range, linear increase of kss
Protocol: (§1) pH- and temperature-dependent studies were carried out for each substrate.
(§2) These temperatures were reached by using a stopped-flow coupled to a cryostat.
(§3) For temperature and pH measurements, RbMPO was set at the same concentration as in the determination of steady state kinetics parameters.

[4] = Steady-state kinetics by stopped-flow, NaBr (Tau-NHBr formation, 289 nm); type: biochemical; details: 300 nM enzyme, 79 μM H2O2; for kss/[Br^−]: NaBr range, linear (k2)
Protocol: as §1, §2, §3

[5] = Chlorination activity with APF probe, NaCl range; type: biochemical; details: linear increase of kss, 1 μM RbMPOs, 79 μM H2O2, 10 μM APF
Excerpt: The chlorination activity of myeloperoxidases can be determined using the aminophenyl fluorescein (APF) probe. One can indeed detect the oxidation of APF (non-fluorescent) by HOCl into fluorescein, a fluorescent molecule that is detectable at λex=485 nm and λem=525 nm. According to such test, the fluorescence measured is proportional to the quantity of fluorescein, which itself is proportional to the quantity of HOCl produced by the myeloperoxidase.
Measurements of chlorination activity were herein performed in Corning 384-well clear-bottom (flat-bottom) plates with a reaction volume of 20 μL, in triplicate at 37° C., and in a 50 mM NaPi buffer at pH7.5. […] A 10 to 30 minutes kinetic was performed for each range value and the fluorescence intensity was compared to that of the standard fluorescein range. Thus, the measured fluorescence is proportional to the amount of fluorescein, which in turn is proportional to the amount of HOCl produced by the RbMPOs.
The slopes were measured at the onset of the reaction in order to be in initial velocity. From these values, it was possible to calculate the kss with the following equation: […]
where slopes in FI.pmoles^−1 corresponds to the slope of the fluorescein standard range: 2.95 10^6+1.13 10^5.

B1: GOxaspniger: glucose oxidase isolated from Aspergillus niger (e.g. CAS number: 9001-37-0) (protein, UniProt P13006 17-605, looked up)
Glucose oxidase: LPHYIRSNGIEASLLTDPKDVSGRTVDYIIAGGGLTGLTTAARLTENPNISVLVIESGSYESDRGPIIEDLNAYGDIFGSSVDHAYETVELATNNQTALIRSGNGLGGSTLVNGGTWTRPHKAQVDSWETVFGNEGWNWDNVAAYSLQAERARAPNAKQIAAGHYFNASCHGVNGTVHAGPRDTGDDYSPIVKALMSAVEDRGVPTKKDFGCGDPHGVSMFPNTLHEDQVRSDAAREWLLPNYQRPNLQVLTGQYVGKVLLSQNGTTPRAVGVEFGTHKGNTHNVYAKHEVLLAAGSAVSPTILEYSGIGMKSILEPLGIDTVVDLPVGLNLQDQTTATVRSRITSAGAGQGQAAWFATFNETFGDYSEKAHELLNTKLEQWAEEAVARGGFHNTTALLIQYENYRDWIVNHNVAYSELFLDTAGVASFDVWDLLPFTRGYVHILDKDPYLHHFAYDPQYFLNELDLLGQAAATQLARNISNSGAMQTYFAGETIPGDNLAYDADLSAWTEYIPYHFRPNYHGVGTCSMMPKEMGGVVDNAARVYGVQGLRVIDGSIPPTQMSSHVMTVFYAMALKISDAILEDYASMQ
surviving bacteria [1]: 1,015,000±21,213 CFU/mL

B2: H407A: RbMPO with active site mutation H407A, generated by site-directed mutagenesis (protein)
chain: MLFWSKRTRKHPGRKRRRLRSEQLESRQLLAADFGGYRHNIYDAEDVNDDGRVSAIDALLVINAMTSETSRDENVFTDVNGDGRRSALDALRVINRIERGDVFPIDTSGDEDLNTLLPEMPSEVRSIDGSGNNPNDHLWGSVGQRLIRMAPAAYGDGISTLAGANRPSAREVSNVLSAMNTSQVLNDRGLSAFVYVWGQFIDHDLGLTESDEHGEAIDISVPEGDLWFDPMGSGEAVIPMTRTPIADGTGTSVGNPAQQFNQITAFIDGSMVYGSDAATAERLRTFAGGRLAISDNGLLPMDESGMVIAGDVRASENVGLTAIQTLFVREHNRLADEIFAADPEATDEEIYQRARLVVASLIQSITYNEFLPALLGQRAMDSYRGYDASVNPGIANEFSTAAFRLGASTLRDEVGFMSNDGRESKDEMELKDAFFHASMLEETGIDSLLKFDASVQAQEIDLAVVDSLRNFLFGPPGAGGLDLVAMNIQRGRDHGLSDYNTTRQAYGLDRVETFDQITGDVELQQKLASLYGTVDNIDLWVGLMAEDHQHDASVGELTGLIIADQFQRTRDGDRFFYKNVLTDSEVESIERSTLADLIERNTSVDGLQENVFFMQVELRGRVILASSIPPNTMPSEVREEEIRGVSGMAIELIDASGKLVDSTVSDQHGNYRFRALSETGDYQVRLSESGEAMDVLVAHGAERIRGLDFIVLA
k2 [2]: 1320 ± 18.9 M⁻¹ s⁻¹ | activity in presence of SCN^− (NaSCN range), in words [3]: not active; also recorded: scatter plot | substrate specificity [3]: greater specificity for Br^− than for SCN^−

B3: D202A, E316A: double mutant of RbMPO with active site mutations D202A and E316A (protein)
chain: B2 chain with D202A, E316A, A407H
Kd ([2]; heme reconstitution, saturation of active site by heme, pH7.5, 25° C.): 10.9 µM | substrate specificity [3]: active only for SCN^− | activity with Br^− (NaBr range), in words [4]: lack of RbMPO activity

B4: H203A: RbMPO with active site mutation H203A, generated by site-directed mutagenesis (protein)
chain: B2 chain with H203A, A407H
k2 [2]: 1840 ± 167 M⁻¹ s⁻¹ | substrate specificity [3]: higher specificity for SCN^− than Br^− | kss/[Br^−] [4]: 73.94 ± 15.07 M⁻¹ s⁻¹ | k2 [5]: no catalytic constant could be determined; also recorded: scatter plot

B5: N317M: RbMPO with active site mutation N317M, generated by site-directed mutagenesis (protein)
chain: B2 chain with N317M, A407H
k2 [3]: 1074 ± 53 M⁻¹ s⁻¹ | substrate specificity [3]: higher specificity for SCN^− than Br^−

B6: D202A: RbMPO with active site mutation D202A, generated by site-directed mutagenesis (protein)
chain: B2 chain with D202A, A407H
substrate specificity [3]: higher specificity for SCN^− than Br^−

B7: Q199A: RbMPO with active site mutation Q199A, generated by site-directed mutagenesis (protein)
chain: B2 chain with Q199A, A407H
k2 [2]: 1720 ± 133 M⁻¹ s⁻¹ | activity in presence of SCN^− (NaSCN range), in words [3]: not active | substrate specificity [3]: only active for Br | kss/[Br^−] [4]: 78.19 ± 22.00 M⁻¹ s⁻¹

B8: E316A: RbMPO with active site mutation E316A, generated by site-directed mutagenesis (protein)
chain: B2 chain with E316A, A407H
k2 [2]: 418+34 M−1 · s−1 | k2 [3]: 1936+374 M^−1 · s^−1 | substrate specificity [3]: active only for SCN^− | activity with Br^− (NaBr range), in words [4]: lack of RbMPO activity | k2 [5]: no catalytic constant could be determined; also recorded: scatter plot

From patent publication US20250297232A1, “BACTERIAL MYELOPEROXIDASE-CATALASE AND APPLICATIONS THEREOF” (priority 2022, published 2025)
